We go through 3 molecules from US20240287479A1, “GLYCOSYLTRANSFERASE MUTANT, AND METHOD FOR CATALYTIC SYNTHESIS OF REBAUDIOSIDE M USING GLYCOSYLTRANSFERASE MUTANT” (XINGHUA GL STEVIA CO., LTD, priority 2021, published 2024).

In general, Km refers to the substrate concentration at which the rate is half of its maximum.

Common to all, as to type: biochemical
Data set [1] can be described thus: Kinetic parameters of purified glycosyltransferases for rebaudioside D. As to the method:
(§1) Activities of glycosyltransferase mutants and a WT glycosyltransferase were determined. A 3 mL catalytic reaction system was prepared from the following components: 1.2 mM rebaudioside E, 2 mM UDPG, 3 mM MgCl2, crude enzyme: 1 mg, and 100 mM potassium phosphate buffer with a pH of 7.2: the balance. A catalytic reaction was conducted on a shaker at 37° C. and 200 rpm, where a sample was collected at 0 min and 30 min. Sample treatment: 500 μL of a sample solution was pipetted and added to an EP tube; the EP tube was placed in boiling water at 95° C. for 15 min to stop a reaction, and then centrifuged in a centrifuge at 12,000 rpm for 1 min; and a resulting supernatant was collected and added to a new EP tube, filtered through an organic filter membrane (0.45 μm), and stored in a liquid-phase sample bottle for high-performance liquid chromatography (HPLC) analysis. Definition of an enzyme activity (U): an enzyme amount required for producing 1 μmol of a product within 1 min is defined as 1 enzyme activity unit.
(§2) A final concentration of rebaudioside E was set to 10 μM to 2,000 μM or a final concentration of rebaudioside D was set to 50 μM to 2,000 μM. Rebaudioside E or rebaudioside D solutions of different concentrations each were mixed with an appropriate amount of each of the purified WT UGT76G1 and the mutant S195Q, and an enzyme activity was determined according to the enzyme activity assay method described above. A Michaelis Menten equation was used to calculate Kn, Vmax, Keat, and Keat/Km of the purified WT glycosyltransferase and the glycosyltransferase mutant.

Data set [2] in a line: Crude enzyme activity of glycosyltransferase mutants and WT (HPLC). Particulars: 1.2 mM rebaudioside E, 2 mM UDPG, crude enzyme 1 mg, 37° C., 30 min. Here is the method:
as §1
The four mutant strains S195Q-StSUS1, L200Y-StSUS1, T284S-StSUS1, and S285W-StSUS1 screened out in the above conversion experiment were used to produce glycosyltransferase mutants, and the glycosyltransferase mutants and the WT glycosyltransferase UGT76G1 were tested for activities. […] Thus, the optimal mutant strain S195Q-StSUS1 was screened out.

Data set [3] in a line: Kinetic parameters of purified glycosyltransferases for rebaudioside E. Here is the method:
as §1, §2

Data set [4] can be described thus: Preliminary screening: conversion of RebE by crude recombinases. Conditions: 40° C., 12 h. As to the method: (§3) Recombinases were prepared with the mutant strains G87D-StSUS1, S147D-StSUS1, S147N-StSUS1, S195Q-StSUS1, L200Y-StSUS1, T284S-StSUS1, S285W-StSUS1, and G378P-StSUS1 and the WT strain UGT76G1-StSUS1, and then used to convert RebE or RebD to preliminarily screen out relatively-preferred mutants.
The conversion of RebE adopted a 3 mL reaction system including. RebE as a substrate: 10 g/L, sucrose: 30 g/L, crude enzyme: 5 mg/mL, and 100 mM potassium phosphate buffer (pH 7.2): the balance. A RebE conversion reaction was conducted on a shaker at 40° C. and 200 rpm for 12 h, and corresponding conversion rates were shown in FIG. 1.

The nature of data set [5]: Preliminary screening: conversion of RebD by crude recombinases. Particulars: 40° C.; for RebD substrate conversion rate relative to UGT76G1-StSUS1: 20 h. As to the method:
as §3
The conversion of RebD adopted a 3 mL reaction system including: RebD as a substrate: 1 g/L, sucrose: 3 g/L, crude enzyme: 5 mg/mL, and 100 mM potassium phosphate buffer (pH 7.2): the balance. A RebD conversion reaction was conducted on a shaker at 40° C. and 200 rpm for 6 h and 20 h, and corresponding conversion rates were shown in FIG. 2.

Where [6] appears, read: substrate RebD, purified enzyme.
Where [7] appears, read: substrate RebE, purified enzyme.

B1: S195Q: UGT76G1 (SEQ ID NO: 1) mutant, position 195 serine to glutamine (protein)
chain: MENKTETTVRRRRRIILFPVPFQGHINPILQLANVLYSKGFSITIFHTNFNKPKTSNYPHFTFRFILDNDPQDERISNLPTHGPLAGMRIPIINEHGADELRRELELLMLASEEDEEVSCLITDALWYFAQSVADSLNLRRLVLMTSSLFNFHAHVSLPQFDELGYLDPDDKTRLEEQASGFPMLKVKDIKSAYQNWQILKEILGKMIKQTKASSGVIWNSFKELEESELETVIREIPAPSFLIPLPKHLTASSSSLLDHDRTVFQWLDQQPPSSVLYVSFGSTSEVDEKDFLEIARGLVDSKQSFLWVVRPGFVKGSTWVEPLPDGFLGERGRIVKWVPQQEVLAHGAIGAFWTHSGWNSTLESVCEGVPMIFSDFGLDQPLNARYMSDVLKVGVYLENGWERGEIANAIRRVMVDEEGEYIRQNARVLKQKADVSLMKGGSSYESLESLVSYISSL
modifications: The sequence is synthetized.
For the molecule B1, in data set [1] (setting [6]), the “Kcat” value came to 0.25 ± 0.004 s⁻¹ and the Km stood at 214 ± 14.5 µM. For the same molecule, in data set [1] (substrate rebaudioside D), the “improvement of affinity compared with the WT glycosyltransferase” value turned out to be 2.2 times and the “improvement of catalytic efficiency compared with the WT glycosyltransferase” value came out at 2.8 times. Moreover, in data set [2], the “enzyme activity (in words)” value was “highest enzyme activity” and the “enzyme activity relative to WT glycosyltransferase UGT76G1” value worked out at 1.3 times. For the same molecule, in data set [3] (setting [7]), the “Kcat” value worked out at 1.48 ± 0.01 s⁻¹ and the Km is 56.3 ± 2.02 µM. Besides, the “improvement of catalytic efficiency compared with the WT glycosyltransferase” value in data set [3] (substrate rebaudioside E) was 2.2 times.

B2: S195Q-StSUS1: recombinase (crude enzyme) from E. coli BL21 (DE3) co-expressing mutant S195Q and sucrose synthase StSUS1 (protein)
chain: MENKTETTVRRRRRIILFPVPFQGHINPILQLANVLYSKGFSITIFHTNFNKPKTSNYPHFTFRFILDNDPQDERISNLPTHGPLAGMRIPIINEHGADELRRELELLMLASEEDEEVSCLITDALWYFAQSVADSLNLRRLVLMTSSLFNFHAHVSLPQFDELGYLDPDDKTRLEEQASGFPMLKVKDIKSAYQNWQILKEILGKMIKQTKASSGVIWNSFKELEESELETVIREIPAPSFLIPLPKHLTASSSSLLDHDRTVFQWLDQQPPSSVLYVSFGSTSEVDEKDFLEIARGLVDSKQSFLWVVRPGFVKGSTWVEPLPDGFLGERGRIVKWVPQQEVLAHGAIGAFWTHSGWNSTLESVCEGVPMIFSDFGLDQPLNARYMSDVLKVGVYLENGWERGEIANAIRRVMVDEEGEYIRQNARVLKQKADVSLMKGGSSYESLESLVSYISSL
For B2, the “RebE conversion rate relative to UGT76G1-StSUS1” value in data set [4] was determined as 1.1 times. For the same molecule, the “RebD substrate conversion rate relative to UGT76G1-StSUS1” value in data set [5] is 1.3 times.

B3: L200Y-StSUS1: recombinase (crude enzyme) from E. coli BL21 (DE3) co-expressing mutant L200Y and sucrose synthase StSUS1 (protein)
chain: MENKTETTVRRRRRIILFPVPFQGHINPILQLANVLYSKGFSITIFHTNFNKPKTSNYPHFTFRFILDNDPQDERISNLPTHGPLAGMRIPIINEHGADELRRELELLMLASEEDEEVSCLITDALWYFAQSVADSLNLRRLVLMTSSLFNFHAHVSLPQFDELGYLDPDDKTRLEEQASGFPMLKVKDIKSAYSNWQIYKEILGKMIKQTKASSGVIWNSFKELEESELETVIREIPAPSFLIPLPKHLTASSSSLLDHDRTVFQWLDQQPPSSVLYVSFGSTSEVDEKDFLEIARGLVDSKQSFLWVVRPGFVKGSTWVEPLPDGFLGERGRIVKWVPQQEVLAHGAIGAFWTHSGWNSTLESVCEGVPMIFSDFGLDQPLNARYMSDVLKVGVYLENGWERGEIANAIRRVMVDEEGEYIRQNARVLKQKADVSLMKGGSSYESLESLVSYISSL
Take B3: the “RebE conversion rate relative to UGT76G1-StSUS1” value in data set [4] is on record as 1.1 times. Also, the “catalytic effect on RebD (in words)” value in data set [5] (6 h) was “optimal catalytic effect”. Moreover, the “RebD substrate conversion rate relative to UGT76G1-StSUS1” value in data set [5] came out at 1.3 times.
